Assay: label from the status in PepcDB records

Row | Sequence | protein production
1 | MMNDIAHNLAQVRDKISAAATRCGRSPEEITLVAVSKTKPASAIAEAIDAGQRQFSEHYVQEGVDKIRHFQELGVTGLEWNFAGPLQSNKSRLVAEHFDWCITIDRLRIATRLNDQRPAELPPLNVLIQINISDENSKSGIQLAELDELAAAVAELPRLRLRGLSAIPAPESEYVRQFEVARQMAVAFAGLKTRYPHIDTLALGQSDDMEAAIAAGSTMVAIGTAIFGARDYSKKGSLEHHHHHH | not failed
2 | MMNIRSKYAVYIFPLLLILFFVGTASALPTVAHDRVQGEMYVASTANWDSHYSTNSFDVPNGTVVFARYYVGVWASGTPSSISATFNGHAFETNPSYYISGMGVTWIPFNVTDYVQPGETNTATIDSSHWGDGRQYGSTLVVVLENENKPEVEYWIAEGLDWVIGYGSSTTYFNDTNIDLDDVDSASLYSTILTGYSSESLNGESLSGAVDSVSGAYFNYIRWDNVKDSLTAENQTIKVVGDGDYTSAVLHGLSITYKIPDLVPTSLTPSYVTPGTVNTMTATIENTDKDSPSFNVSLIADGTVVDTQDVSGIAAGGSTTVDLQWTPEGGKDSYSLTVVVDPDNSVVESEETNNELTVLVGSASVEVPVANFTAVPTSGSIPLTVNFTDQSTNSPTSWFWDFGDGENSTSQNPSHTYTSVGNHTVSLTVTNAEGSDSEVKTDYITVEVITPVAAFTADNTSGAAPFTVQFTDQSANLPAEWFWDFGDGTNSTEQNPAHTYITAGKYTVKLTTANAAGNDSEEKTDYITAYIPPVANFTATPTSGGAPLTVTFTDTSTNMPTEWLWDFGDGVNSTDQNPIHTYTSAGNYTVSFTATNSGGSDSELKTAYITVTAEAGKGGLADTAWPKFHYDLGNTGQSPYTGPQTANVVWTYTTTGEMRLGQGAVIGSDGTMYIGDRSGTLYAINPNGTLKWGTSIGTKSFPTPAIASDGTIYAGGNDKIVYAINPDGSIKWSYPVGTKSVISSPAIASDGTIYFATSTNLFALKPDGTLKWNSAVSYGGYNYFSPAIGSDGTIYLGTYGGALSAINADGTLKWTYSIPAPNNYIYDTPAIASDGTIYFGCNNANLYALNPDGTLKWTYSVGTSASQAIKSSPAIGSDGTIYFGSNNQYFYALYPDGTLKWSSKAGSFGQTTPTIGSDGTIYIDNYGSKTLYAFNPDGTVKWSYADGNYNYASPAIASDGTLYFGKGYTVYAFRDVAPVSNFTADPTSGTAPLTVNFTDQSTGSPTSWFWDFGDGANSTEQNPVHTYSVAGNYTTNLTVTNSAGTDFEVKTDYITVLEPSTPEPEPVAAFTADVTSGSAPLTVNFTDQSTGSPTSWLWDFGDGTNSTEQNPVHTYASAGSYTVNLTVENDAGSDFELKTDYIEVSEISGSTVTLYFDPESSSVAENESTEISLVASNFPAGLSGYNLTVAIDDPAVAEIVGIEYPTWALITENSTLPGTSIYMKTVDLEDSIKEEEGEVVLATLTVSGKEKGSANISIGVKRLEDDSGDSIEPALLTGTIEVTILSLLPDQEYAPKDLDGDGLYEDLTGNGEFSFVDIVAYFHNMDWIEENMPVEYFDFNGNGRIDFDDVVDMFAMI | failed
3 | MMNKNKTLEYYNKNADNFAKTTINVDFYETQNRFSTLLPEHGYILDFGCGSGRDTKYFLDQGFYVDATDGSEEMCHIASNYTGIQVRRLLFEELDENKKYDGIWACSSILHLPKNELKAVFMKMLKALKEDGIIYTSFKYGDFEGERNGRYFTDFTEKTFEEFVGEIDNLQLKEEWITGDVRPGRGEEKWLNVILQKN | failed
4 | MMNLPKNIQQPLSLIYLDANATTQVLPQAASAALSTMETLFGNPSSSHISGLQAKQIVDKTRQQAKRIVGAAEGKIIFTSGATEGIQTAILSALVNVKKTLNKSLNNKSYSLLYGATEHKAVPESLKHWNKILEINAEIKAIPVDEKGQLDMAFIAKEVPNALMVCTMAVNNETGVYQDISLLDQTIRTNNPNVAWMVDCVQALGKTDLVLAQTSIDYAPFSGHKLYAPKGIGFMYVKEKAPFTAFIAGGGQESGLRSGTENLPGLAALSEIFSMLLGESEASFTPIKTLHLYRQQLVSALTQAFPEITFNHSFENSVATTLNFAIPGFSSKEIMDLFDAANIRVSSGSACSSKVTRSFVLDAMGLPAWQSESAIRMSFGPAMTQTEIDIACSRIVSAAQALVQSCLTLDKKNIDTQTMNTSSTTNKTELDGLVQFKAGGSCSWLYVDKKTRSAVFIDPLSEVSERLQTLLTCRGLNLVAVIDTHGHADHKSCRNGIAKKFLAEQQTEYLGWPAGAQTTTIHGQTFQYLILGDKWLIKVATPGHTDDSMSLLLCDPVTDSAEKLQVHYAFCGDLILMDSIGRSNFSTSSAPAMYSSLKLMKSLIGNNSLICPSHDYHNEFTTCLETEMKRNSLLRQVINSEIDIEEFTSKKIKMDKDIINESGSEIMCGALIGACQKVVVREYDSASLTKAVKKSSDMKLIDIREPHEYALQHDEKFTSNVPLTRLVQFVKEQQQNKEQEFVLVCRSGGRSQLAAQALARLGFENVGHLKGGYALHQY | failed
5 | MMNRVILVGRLTKDPDLRYTPNGVAVATFTLAVNRAFANQQGEREADFINCVIWRKQAENVANYLKKGSLAGVDGRLQTRNYEGQDGKRVYVTEVLAESVQFLEPRNGGGEQRGSFNQQPSGAGFGNQSSNPFGQSSNSGNQGNQGNSGFTKNDDPFSNVGQPIDISDDDLPF | failed
6 | MMPPNQPLATYLDDAPSHGGMMRERRYYRAYGLTVASDVALPELEPTEPAAADILIAIGTIDMPKPSSEAATIFRFEPDRQYLAWHAVGAFLISDADRIDIEPAPGVDDALLAFPLLGPVMALLLHQRGLLVLHASAIAAAGKGAIFMGDKGAGKSTTASALIRAGHELLTDDVVALDLARPDAPMIVAGFPQIKLAADAAAAISLGRAEVRPQVHPAIEKMQHRLHGAFSGGMVPATRIYVLERGAKAAITALPGIAALPAIIKFSYVTRFGRAALSGDFAALHLRQCSAIANHVGVFRLEVPTGLDRIGEAVALVESDLAAGDLAAGRRRR | failed
7 | MMQSITTFMAALGKYDFLQSALITAIMVGVMSGIIGSFIILRGMSMMGDAISHAVLPGVAVAYMLGINVLIGASVFGILAASLIGFVASRSKIKTDTSIGIVFSAFYALGFILISLAESSTNLHHILFGNILAVSDTDMMTTTVVLGLVILFVAFFYKELLITSFDPTFAKTYGLKVQLLHYALMLVLTLVTVSALQTVGIILVVAMLITPAATAFLWTERLAVMLGLSALIGVLSSVVGLYLSYTLNWASGPAIVLVAAIFFGISFIISPKQALLPTLWKGQAAARRVTA | failed
8 | MMRLLGILFILLSSSFNVYAQLPQVSAGSIERLTSFPSAFVPPRNIDIWLPAGYDKQQRYAVLYMHDGQMLFDATTSWNKQEWQIDEVASRLIKAGKTQPFIVVGIDNAGENRHSEYFPQQPFENLSQAQQTALYQLQRTKNQALFSQQVYSDRYLKFLVTELKPYIDSHYSVYTDAAHTFVMGSSMGGLISLYAISEYPHIFGGAACLSTHWPGTFEQQNNPIPPAFFNYMQQKLPDPSTHKLYFDHGTATLDAWYPQLQAKADKIIEAKGYTSQNWQSLIFEGAEHSEHAWAARLDIPLIFLLA | failed
9 | MMRQPRARTMTMRDDIRDLPANDDRMTRFLGGSPMAVAFRLILMSILVGVVLAAIGLDPWNIITSIRLLFERIWDLGFDAINGLWRYFLLGAVIVIPIWLLTRLASTPRGR | failed
10 | MMRTGFQGVARLVHHKALYRSPQTLPRLHLASAFGSSTDSLVARFCGEKTDLKDYALPNASWCPDMLSLYQEFLEKTKSGSWVKLPSFKSNRDHIRGLKLPFGLVAASDKQDWRLFTRSIQLEGQGYEYVIFFHPSEKKSVCLFQPGPYLEGAPGFAHGGSLAALMDETYSKTAYLAGEGLFTLSFNIKFKNLIPVGSLAVLDLQVEKIEDQKLYMSCIAQSRDKQTVYAKSSGVFLQLQLEEEQSGEQ | failed
11 | MMSAVPVSLPVKMLVTRHISPDRYGDFLAWMRQGEILAAGFPGFLGSGVLQPPEGGDQYQIVLRFDSEASLARWEQSLPRRMWLERGAALVRASHARRVTGMDSWFGAPAGAPPRWKQAVSIWLVYFPMLLLFSTALDAQLNALPLFWRVLATTLCMTPVLSFLCIPLVTRVLRGWLHPRAVGAAD | failed

— a protein production outcome set (Wang et al. 2014)
